Source: the nanobody polyreactivity screen of Harvey et al. (2022)

Assay: yeast display, Sf9 membrane polyspecificity reagent, FACS + sequencing; frameworks hold sequencing errors
How it was run: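 In a synthetic yeast display library (Saccharomyces cerevisiae BJ5465), nanobody expression was induced with galactose for 36–48 hours. FACS gates were set low and high (top ~1%) using anti-HA fluorescence for expression and streptavidin fluorescence for binding of the Sf9 membrane reagent. Each polyreactivity label is drawn from the gate of origin.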

Sequence | polyreactivity (PSR sort gate)
QVQLVESGGGLVQAGGSLRLSCAASGITFYRYAMGWYRQAPGKEREFVAAITWGSTYYADSVKGRFTISRDNAKNTVYLQMNSLTPEDTAVYYCNADWGGFWQHRELDSWGQGTQVTVSS | low polyreactivity
QVQLVESGGGLVQAGGSLRLSCAASGLTFGYYAMGWYRQAPGKERELVAVISGGGGTHYADSVKGRFTISRDNAKITVYLQMNSLKPEDTAVYYCAARYRAQQIARYYYWGQGTQVTVSS | high polyreactivity
QVQLVESGGGLVQAGGSLRLSCAASGSTSGTNAMGWYRQAPGKERELVATISRRGGSTYYADSVKGRFTISRDNAKNTVYLQMNSLKQDYTAVYYCAARTYGYFLYDYWGQGTQVTVSS | high polyreactivity
QVQLVESGGGLVQAGGSLRLSCPASGSTFRYYAMGWYRPAPGKERELVAGISSSGGSTYYADSVKGRFTISRDNAKNTVYLQMNSLKPEDTAVYYCNAARGTSRSWAVFADYDYWGQGSQVTVSS | high polyreactivity
QVQIVESGGGLVQAGGSLRLTCAASGFTFGPYAMGWYRQEPGKERELVAAITVNGSSTYADSVKGRFTISRDNAKNTVVLQMNSLKPEDTAVYYCAATVYPGGPYGGDSDYWGQGTQVTVSS | low polyreactivity
QVQLVESGGGLVQAGGSLRLSCAASGSTFLGNAMGWYRQAPGKERELVAGITSGGTTNFADSVKGRFTISRDNAKNTVYLQMNSLKPEDTAVYYCNADVWIGQRLDPGYDFDYWGQGTQVTVSS | low polyreactivity
QVQLVESGGGLVQAGGSLRLSCAASGRIFYVYAMGWYRQAPGKERELVAAITSGGRTDYADSVKGRFTISRDNAKNTVYLQMNSLKPEDTAVYYCAVRGSYRGWYDYWGQGTQVTVSS | high polyreactivity
QVQIVESGGGLVQAGGSLRLSCAASGFTFWNYAMGWYRQAPGKERELVATITRSGGRTYYADSVKGRFTISRDHAKNTGYLQMNSLIPEDTAVYYCSARVWPVVYSWGYNYLGQGTQVTVSS | high polyreactivity
QVQLEESGGGLVQAGGRLRISCAASGRTFLCYAMGWSRQAPGKERELLAAISKSGGSTYYADSVKGRFTISRDNAKNTVYLQMNSLKPQDTAVYYCAVEVDVYTFSEFYYWGQGTQVTVSS | high polyreactivity
QVQLVESGGGLVQAGGSLRLSCAASGNTFDGNAMGWYRQAPGQERELVAAINYSGASTSYADSVKGRFTISRDNAKNTVYLQMNSLKREDTAVYYCAADYPPLYRKYDYWGHGTQVTVSS | low polyreactivity
QVQLVESGGGLVQAGGSLRLSCAASGSIINAYAMGWYRPAPGKERELVAAINSGGTTYYADSVKGRFTISRDNAKNTVYLQMISLKPEDTAVYYCNAVSKWAIYDYWGQGTQVTVSS | high polyreactivity
QVQLVESGGGLVQAGGSLRLSCAASGSTYVQYAMGWYRKAPGKERELVPVISYSGGSTYYADSVKGRFTISRDNAKNTVYLQMNSLKPEDTAVYYCAAVYGGGHRKMDYWGQGTQVTVSS | low polyreactivity
QVQLVESGGGLVQAGGSLRLSCAASGFIFPRYAMGWYRQAPGKERELVAAISYSGGSTYYADSVKGRFTISRDNAKNTVYLQMNSLKPEDTAVYYCNTAPWWRTSSDYEYWGQGTQVTVSS | high polyreactivity
QDQLVESGGGLVQAGGSLRLSCAASGSIFSYTMGCYRQAPAKQRELVAAITSGGITYYADSVKGRFSISRDNAKNTVYLQMNSLKPEDTAVYYCADGWSSYRFGYWGQGTQVTVSS | low polyreactivity
QVQLVESGGGLVQAGGSLRLSCAASGFTFDSNAMGWYRQAPGKERELVAAISASGDSTYYADSVKGRFTISRDNAKNTVYLQMNSLKPEDTAVYYCAADRFYGGWRFDHWGQGTQVTVSS | low polyreactivity
QVQLVESGGGLVQAGGSLRLSCAASGSTFHPYAMGWYRQPPGKASELVAAINWRVGSTYYADSVKGRFTISRDNAKNTVYLQMTSQIPEDTAVYYCAVSYMATLGRSRYDYWGQGTQVTVSS | low polyreactivity
QGQLVESGGGLVQAGGSLRLSCAASARTYGNYAMGRYREAPGKERELVADITRRGGSTSYADSVKGRFTISRDNAKNTVYLQMNSLKPEDTAVYYCNKRTTPYYSQGITRIEYDYWGQGTQVTVSS | low polyreactivity
